Publication PMC4912689, “The Extracellular Surface of the GLP-1 Receptor Is a Molecular Trigger for Biased Agonism” (Cell, 2016)

B1: glucagon-like peptide 1 receptor (GLP-1R), wild-type, P43220 E292A (protein)
chain: RPQGATVSLWETVQKWREYRRQCQRSLTEDPPPATDLFCNRTFDEYACWPDGEPGSFVNVSCPWYLPWASSVPQGHVYRFCTAEGLWLQKDNSSLPWRDLSECEESKRGERSSPEEQLLFLYIIYTVGYALSFSALVIASAILLGFRHLHCTRNYIHLNLFASFILRALSVFIKDAALKWMYSTAAQQHQWDGLLSYQDSLSCRLVFLLMQYCVAANYYWLLVEGVYLYTLLAFSVLSEQWIFRLYVSIGWGVPLLFVVPWGIVKYLYADEGCWTRNSNMNYWLIIRLPILFAIGVNFLIFVRVICIVVSKLKANLMCKTDIKCRLAKSTLTLIPLLGTHEVIFAFVMDEHARGTLRFIKLFTELSFTSFQGLMVAILYCFVNNEVQLEFRKSWERWRLEHLHIQRDSSMKPLKCPTSSLSSGATAGSSMYTATCQASCS
B2: glucagon-like peptide 1 receptor (GLP-1R), wild-type, P43220 Y220A (protein)
chain: RPQGATVSLWETVQKWREYRRQCQRSLTEDPPPATDLFCNRTFDEYACWPDGEPGSFVNVSCPWYLPWASSVPQGHVYRFCTAEGLWLQKDNSSLPWRDLSECEESKRGERSSPEEQLLFLYIIYTVGYALSFSALVIASAILLGFRHLHCTRNYIHLNLFASFILRALSVFIKDAALKWMYSTAAQQHQWDGLLSAQDSLSCRLVFLLMQYCVAANYYWLLVEGVYLYTLLAFSVLSEQWIFRLYVSIGWGVPLLFVVPWGIVKYLYEDEGCWTRNSNMNYWLIIRLPILFAIGVNFLIFVRVICIVVSKLKANLMCKTDIKCRLAKSTLTLIPLLGTHEVIFAFVMDEHARGTLRFIKLFTELSFTSFQGLMVAILYCFVNNEVQLEFRKSWERWRLEHLHIQRDSSMKPLKCPTSSLSSGATAGSSMYTATCQASCS
B3: glucagon-like peptide 1 receptor (GLP-1R), wild-type, P43220 D222A (protein)
chain: RPQGATVSLWETVQKWREYRRQCQRSLTEDPPPATDLFCNRTFDEYACWPDGEPGSFVNVSCPWYLPWASSVPQGHVYRFCTAEGLWLQKDNSSLPWRDLSECEESKRGERSSPEEQLLFLYIIYTVGYALSFSALVIASAILLGFRHLHCTRNYIHLNLFASFILRALSVFIKDAALKWMYSTAAQQHQWDGLLSYQASLSCRLVFLLMQYCVAANYYWLLVEGVYLYTLLAFSVLSEQWIFRLYVSIGWGVPLLFVVPWGIVKYLYEDEGCWTRNSNMNYWLIIRLPILFAIGVNFLIFVRVICIVVSKLKANLMCKTDIKCRLAKSTLTLIPLLGTHEVIFAFVMDEHARGTLRFIKLFTELSFTSFQGLMVAILYCFVNNEVQLEFRKSWERWRLEHLHIQRDSSMKPLKCPTSSLSSGATAGSSMYTATCQASCS
B4: glucagon-like peptide 1 receptor (GLP-1R), wild-type, P43220 N300A (protein)
chain: RPQGATVSLWETVQKWREYRRQCQRSLTEDPPPATDLFCNRTFDEYACWPDGEPGSFVNVSCPWYLPWASSVPQGHVYRFCTAEGLWLQKDNSSLPWRDLSECEESKRGERSSPEEQLLFLYIIYTVGYALSFSALVIASAILLGFRHLHCTRNYIHLNLFASFILRALSVFIKDAALKWMYSTAAQQHQWDGLLSYQDSLSCRLVFLLMQYCVAANYYWLLVEGVYLYTLLAFSVLSEQWIFRLYVSIGWGVPLLFVVPWGIVKYLYEDEGCWTRASNMNYWLIIRLPILFAIGVNFLIFVRVICIVVSKLKANLMCKTDIKCRLAKSTLTLIPLLGTHEVIFAFVMDEHARGTLRFIKLFTELSFTSFQGLMVAILYCFVNNEVQLEFRKSWERWRLEHLHIQRDSSMKPLKCPTSSLSSGATAGSSMYTATCQASCS
B5: glucagon-like peptide 1 receptor (GLP-1R), wild-type, P43220 G295A (protein)
chain: RPQGATVSLWETVQKWREYRRQCQRSLTEDPPPATDLFCNRTFDEYACWPDGEPGSFVNVSCPWYLPWASSVPQGHVYRFCTAEGLWLQKDNSSLPWRDLSECEESKRGERSSPEEQLLFLYIIYTVGYALSFSALVIASAILLGFRHLHCTRNYIHLNLFASFILRALSVFIKDAALKWMYSTAAQQHQWDGLLSYQDSLSCRLVFLLMQYCVAANYYWLLVEGVYLYTLLAFSVLSEQWIFRLYVSIGWGVPLLFVVPWGIVKYLYEDEACWTRNSNMNYWLIIRLPILFAIGVNFLIFVRVICIVVSKLKANLMCKTDIKCRLAKSTLTLIPLLGTHEVIFAFVMDEHARGTLRFIKLFTELSFTSFQGLMVAILYCFVNNEVQLEFRKSWERWRLEHLHIQRDSSMKPLKCPTSSLSSGATAGSSMYTATCQASCS
B6: glucagon-like peptide 1 receptor (GLP-1R), wild-type, P43220 Q213A (protein)
chain: RPQGATVSLWETVQKWREYRRQCQRSLTEDPPPATDLFCNRTFDEYACWPDGEPGSFVNVSCPWYLPWASSVPQGHVYRFCTAEGLWLQKDNSSLPWRDLSECEESKRGERSSPEEQLLFLYIIYTVGYALSFSALVIASAILLGFRHLHCTRNYIHLNLFASFILRALSVFIKDAALKWMYSTAAQQHAWDGLLSYQDSLSCRLVFLLMQYCVAANYYWLLVEGVYLYTLLAFSVLSEQWIFRLYVSIGWGVPLLFVVPWGIVKYLYEDEGCWTRNSNMNYWLIIRLPILFAIGVNFLIFVRVICIVVSKLKANLMCKTDIKCRLAKSTLTLIPLLGTHEVIFAFVMDEHARGTLRFIKLFTELSFTSFQGLMVAILYCFVNNEVQLEFRKSWERWRLEHLHIQRDSSMKPLKCPTSSLSSGATAGSSMYTATCQASCS
B7: glucagon-like peptide 1 receptor (GLP-1R), wild-type, P43220 L201A (protein)
chain: RPQGATVSLWETVQKWREYRRQCQRSLTEDPPPATDLFCNRTFDEYACWPDGEPGSFVNVSCPWYLPWASSVPQGHVYRFCTAEGLWLQKDNSSLPWRDLSECEESKRGERSSPEEQLLFLYIIYTVGYALSFSALVIASAILLGFRHLHCTRNYIHLNLFASFILRALSVFIKDAAAKWMYSTAAQQHQWDGLLSYQDSLSCRLVFLLMQYCVAANYYWLLVEGVYLYTLLAFSVLSEQWIFRLYVSIGWGVPLLFVVPWGIVKYLYEDEGCWTRNSNMNYWLIIRLPILFAIGVNFLIFVRVICIVVSKLKANLMCKTDIKCRLAKSTLTLIPLLGTHEVIFAFVMDEHARGTLRFIKLFTELSFTSFQGLMVAILYCFVNNEVQLEFRKSWERWRLEHLHIQRDSSMKPLKCPTSSLSSGATAGSSMYTATCQASCS
B8: glucagon-like peptide 1 receptor (GLP-1R), wild-type, P43220 S223A (protein)
chain: RPQGATVSLWETVQKWREYRRQCQRSLTEDPPPATDLFCNRTFDEYACWPDGEPGSFVNVSCPWYLPWASSVPQGHVYRFCTAEGLWLQKDNSSLPWRDLSECEESKRGERSSPEEQLLFLYIIYTVGYALSFSALVIASAILLGFRHLHCTRNYIHLNLFASFILRALSVFIKDAALKWMYSTAAQQHQWDGLLSYQDALSCRLVFLLMQYCVAANYYWLLVEGVYLYTLLAFSVLSEQWIFRLYVSIGWGVPLLFVVPWGIVKYLYEDEGCWTRNSNMNYWLIIRLPILFAIGVNFLIFVRVICIVVSKLKANLMCKTDIKCRLAKSTLTLIPLLGTHEVIFAFVMDEHARGTLRFIKLFTELSFTSFQGLMVAILYCFVNNEVQLEFRKSWERWRLEHLHIQRDSSMKPLKCPTSSLSSGATAGSSMYTATCQASCS
B9: glucagon-like peptide 1 receptor (GLP-1R), wild-type, P43220 E387A (protein)
chain: RPQGATVSLWETVQKWREYRRQCQRSLTEDPPPATDLFCNRTFDEYACWPDGEPGSFVNVSCPWYLPWASSVPQGHVYRFCTAEGLWLQKDNSSLPWRDLSECEESKRGERSSPEEQLLFLYIIYTVGYALSFSALVIASAILLGFRHLHCTRNYIHLNLFASFILRALSVFIKDAALKWMYSTAAQQHQWDGLLSYQDSLSCRLVFLLMQYCVAANYYWLLVEGVYLYTLLAFSVLSEQWIFRLYVSIGWGVPLLFVVPWGIVKYLYEDEGCWTRNSNMNYWLIIRLPILFAIGVNFLIFVRVICIVVSKLKANLMCKTDIKCRLAKSTLTLIPLLGTHEVIFAFVMDEHARGTLRFIKLFTALSFTSFQGLMVAILYCFVNNEVQLEFRKSWERWRLEHLHIQRDSSMKPLKCPTSSLSSGATAGSSMYTATCQASCS

The binders below were run against exendin-4, P26349 (assay: radioligand inhibition binding (competition with 125I-exendin-4(9-39))). Details: chain shown with the change;; read off a plot.
In the case of B1, the log10 ratio is reported as -1.8 ΔpKi. B2 was tested, and the log10 ratio was 0.1 ΔpKi. For B3, the log10 ratio was -0.25 ΔpKi. For B4, the log10 ratio was -1.8 ΔpKi. For B5, the log10 ratio was -0.1 ΔpKi. For B6, the log10 ratio was -0.15 ΔpKi. With B7 the log10 ratio was -0.3 ΔpKi. In the case of B8, the log10 ratio is reported as -0.4 ΔpKi. For B9, the log10 ratio was -0.4 ΔpKi.
